Experimental data reported in paper PMC10251477, “Doubly Constrained C-terminal of Roc (COR) Domain-Derived Peptides Inhibit Leucine-Rich Repeat Kinase 2 (LRRK2) Dimerization” (ACS Chemical Neuroscience, 2023).

Target: Purified full-length LRRK2 (UniProt Q5S007)
Assay: mass photometry; LRRK2 at 150 nM or 200 nM incubated with constrained peptide 1:7.5 for 30 min at 30 °C; 10 uL added to 10 uL buffer (50 mM HEPES, 150 mM NaCl, 5 mM MgCl2, 1 mM DTT, 0.1 mM GDP, 1% glycerol); Refeyn TwoMP; percentage of dimer from molecular weight
Conditions: remark: other sources report otherwise

Substance: Purified full-length LRRK2, Q5S007 1-2527
- stoichiometry N: 2
